Source: paper PMC8303762

Biological target: insulin-like growth factor-1 receptor (IGF-1R) on MCF-7 cells (human (endogenous in MCF-7)) (UniProt P08069)
Chain of UniProt P08069 (P08069 31-1367): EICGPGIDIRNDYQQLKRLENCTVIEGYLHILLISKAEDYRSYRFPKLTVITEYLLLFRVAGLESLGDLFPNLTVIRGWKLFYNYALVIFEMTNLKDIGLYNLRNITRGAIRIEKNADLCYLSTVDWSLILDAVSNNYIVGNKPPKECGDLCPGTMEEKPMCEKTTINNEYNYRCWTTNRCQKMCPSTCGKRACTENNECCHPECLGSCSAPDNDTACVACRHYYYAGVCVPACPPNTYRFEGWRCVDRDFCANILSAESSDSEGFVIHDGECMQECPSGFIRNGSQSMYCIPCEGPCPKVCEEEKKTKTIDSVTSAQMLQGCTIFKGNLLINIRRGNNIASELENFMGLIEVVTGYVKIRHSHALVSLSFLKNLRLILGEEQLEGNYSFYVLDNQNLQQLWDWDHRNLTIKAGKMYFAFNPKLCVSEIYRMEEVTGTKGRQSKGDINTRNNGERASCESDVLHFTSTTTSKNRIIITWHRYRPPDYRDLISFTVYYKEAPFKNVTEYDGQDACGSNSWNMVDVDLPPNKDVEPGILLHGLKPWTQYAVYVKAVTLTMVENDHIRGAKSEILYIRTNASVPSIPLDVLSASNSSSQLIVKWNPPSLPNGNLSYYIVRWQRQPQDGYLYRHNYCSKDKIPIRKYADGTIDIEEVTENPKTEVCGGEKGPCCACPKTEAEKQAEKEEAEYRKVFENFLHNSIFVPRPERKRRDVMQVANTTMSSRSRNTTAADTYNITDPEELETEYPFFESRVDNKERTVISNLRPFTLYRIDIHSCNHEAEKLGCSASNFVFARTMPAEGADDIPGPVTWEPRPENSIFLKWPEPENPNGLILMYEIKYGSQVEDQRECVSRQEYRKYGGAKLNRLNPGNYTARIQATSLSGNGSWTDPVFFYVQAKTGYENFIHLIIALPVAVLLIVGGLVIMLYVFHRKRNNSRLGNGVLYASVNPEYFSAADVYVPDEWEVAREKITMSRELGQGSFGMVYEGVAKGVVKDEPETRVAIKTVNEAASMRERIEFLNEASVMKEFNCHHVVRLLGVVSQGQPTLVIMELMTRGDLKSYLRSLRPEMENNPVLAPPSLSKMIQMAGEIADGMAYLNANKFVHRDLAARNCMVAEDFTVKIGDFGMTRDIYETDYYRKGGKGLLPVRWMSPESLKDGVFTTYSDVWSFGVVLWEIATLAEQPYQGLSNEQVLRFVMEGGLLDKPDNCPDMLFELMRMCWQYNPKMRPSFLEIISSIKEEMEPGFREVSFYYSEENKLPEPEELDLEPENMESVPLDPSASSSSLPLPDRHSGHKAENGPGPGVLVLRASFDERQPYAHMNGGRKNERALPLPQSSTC

Chain of recombinant human vimentin (P08670 whole entry): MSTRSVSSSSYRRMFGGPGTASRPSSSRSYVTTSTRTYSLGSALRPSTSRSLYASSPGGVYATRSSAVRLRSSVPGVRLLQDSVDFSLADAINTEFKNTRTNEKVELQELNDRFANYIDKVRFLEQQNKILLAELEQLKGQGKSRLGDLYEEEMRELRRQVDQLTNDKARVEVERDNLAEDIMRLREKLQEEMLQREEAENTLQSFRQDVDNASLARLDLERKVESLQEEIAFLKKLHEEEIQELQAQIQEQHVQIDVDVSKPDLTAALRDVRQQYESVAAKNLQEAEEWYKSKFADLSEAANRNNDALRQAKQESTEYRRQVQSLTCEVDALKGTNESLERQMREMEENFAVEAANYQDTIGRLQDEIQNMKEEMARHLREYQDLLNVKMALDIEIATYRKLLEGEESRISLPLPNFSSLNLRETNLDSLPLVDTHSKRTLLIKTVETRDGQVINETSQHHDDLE

## recombinant human vimentin (from UniProt P08670 1-466) (natural protein)
  MTT proliferation of MCF-7 cells treated with recombinant human vimentin (0, 50, 100, 200 ng/mL), 72 h; value printed for 100 ng/mL: > 20%
